# Measurements published in paper PMC11927755.
# Molecular target: preformed microtubules (polymerized tubulin, paclitaxel-stabilised) (UniProt P02550)
# Test: co-sedimentation; microtubule spin-down: 1 μM tau with paclitaxel-stabilised preformed microtubules in general tubulin buffer (80 mM PIPES pH 7.0, 1 mM MgCl2, 1 mM EGTA), 30 min at RT, through a sucrose cushion at 100,000 RCF for 40 min, pellet washed twice; tau (Tau5) and tubulin (5H1) in supernatant and pellet by Western blot; % tau in pellet
# Sequence of UniProt P02550 (P02550 whole entry, looked up): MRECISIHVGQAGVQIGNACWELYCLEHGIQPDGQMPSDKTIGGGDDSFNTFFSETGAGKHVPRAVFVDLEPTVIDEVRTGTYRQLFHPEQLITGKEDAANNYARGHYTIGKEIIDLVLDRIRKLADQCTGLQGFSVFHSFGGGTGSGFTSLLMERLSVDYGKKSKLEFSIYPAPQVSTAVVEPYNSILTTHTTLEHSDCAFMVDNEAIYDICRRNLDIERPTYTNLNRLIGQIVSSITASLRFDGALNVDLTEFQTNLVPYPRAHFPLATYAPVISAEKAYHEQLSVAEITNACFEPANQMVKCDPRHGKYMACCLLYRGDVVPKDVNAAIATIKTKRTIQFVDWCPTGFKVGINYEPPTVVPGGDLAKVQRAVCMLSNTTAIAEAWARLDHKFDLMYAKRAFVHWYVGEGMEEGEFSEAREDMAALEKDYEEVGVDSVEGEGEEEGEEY
substance,measurement,value
"O-GlcNAc modified hT39 (Glc hT39, 2N3R tau) (from UniProt P10636-5 1-410) (natural protein)",percent decrease of tau in the pelleted microtubule fraction relative to unmodified hT39,45%
